{
  "source": "the supplement of paper PMC7125110",
  "parents": {"B1": {"name": "glmS ribozyme (parent)", "chain": "AUAAAAGCGCCAGAACUACAGAAAUGUAGUUGACGAGGAGGAGGUUUAUCGAAUUUUCGGCGGAUGCCUCCAAA"}},
  "note": "± gives the standard error. Variants at the floor of the assay were thinned out.",
  "data": [
    {"variants_of": "B1", "experiment": "self-cleavage kobs at 2500 uM GlcN6P; higher = faster cleavage; RNA array", "conditions": "with glucosamine-6-phosphate", "summary_of_the_method": "(§1)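 Tiles bearing barcoded ribozyme variants, transcribed in situ by E. coli RNA polymerase on sequenced MiSeq chips, were imaged over ~14 h at 37 °C using a hybridised Cy3 probe. Glucosamine-6-phosphate was supplied at 40 μM to 10 mM in HEPES/KCl/Mg(OAc)2 buffer. kobs came from one- or two-exponential decay fits to normalised per-tile medians, and weighted Michaelis–Menten fits then provided kcat and KM.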", "units": {"self-cleavage kobs at 2500 uM GlcN6P": "s⁻¹"}, "values": [
      {"variant": "A12G G40U U46A C58U", "self-cleavage kobs at 2500 uM GlcN6P": "< 1e-05"},
      {"variant": "A14U U57A A64G", "self-cleavage kobs at 2500 uM GlcN6P": "3.21e-05 ± 1.3e-05"},
      {"variant": "A12G G29U C58A G59U C67A", "self-cleavage kobs at 2500 uM GlcN6P": "< 1e-05"},
      {"variant": "G13U U30G G32C", "self-cleavage kobs at 2500 uM GlcN6P": "4.58e-05 ± 1.5e-05"},
      {"variant": "A15U G35U G38U U49G U54A", "self-cleavage kobs at 2500 uM GlcN6P": "< 1e-05"},
      {"variant": "G13U G51C U57A C71A", "self-cleavage kobs at 2500 uM GlcN6P": "< 1e-05"},
      {"variant": "C16U A42U U54G", "self-cleavage kobs at 2500 uM GlcN6P": "0.000152 ± 3e-05"},
      {"variant": "A15C U31C G41C U57G", "self-cleavage kobs at 2500 uM GlcN6P": "< 1e-05"},
      {"variant": "A14C G29U A53G U65G", "self-cleavage kobs at 2500 uM GlcN6P": "6.14e-05 ± 1.8e-05"},
      {"variant": "C11U U49C G63C", "self-cleavage kobs at 2500 uM GlcN6P": "< 1e-05"},
      {"variant": "A15C U45C C50G C68U", "self-cleavage kobs at 2500 uM GlcN6P": "< 1e-05"},
      {"variant": "A12U U31G U56A", "self-cleavage kobs at 2500 uM GlcN6P": "0.00599 ± 0.0012"},
      {"variant": "G13U U47G C67U", "self-cleavage kobs at 2500 uM GlcN6P": "8.34e-05 ± 2.2e-05"},
      {"variant": "G13U U47G C67A", "self-cleavage kobs at 2500 uM GlcN6P": "7.8e-05 ± 1.6e-05"},
      {"variant": "A15C G37A A39G", "self-cleavage kobs at 2500 uM GlcN6P": "0.000365 ± 0.00012"},
      {"variant": "G13C A15G C58A", "self-cleavage kobs at 2500 uM GlcN6P": "5.1e-05 ± 1.5e-05"},
      {"variant": "C11U G40A U49C G59C", "self-cleavage kobs at 2500 uM GlcN6P": "< 1e-05"},
      {"variant": "C16G U31G A42G", "self-cleavage kobs at 2500 uM GlcN6P": "0.000761 ± 0.0003"},
      {"variant": "A15U G35U G40A", "self-cleavage kobs at 2500 uM GlcN6P": "< 1e-05"},
      {"variant": "A15U C16U U45A", "self-cleavage kobs at 2500 uM GlcN6P": "0.00158 ± 0.00051"},
      {"variant": "A15G A64C G66A", "self-cleavage kobs at 2500 uM GlcN6P": "0.000144 ± 4.8e-05"},
      {"variant": "C16A A42U A64U", "self-cleavage kobs at 2500 uM GlcN6P": "< 1e-05"},
      {"variant": "G13U G66A", "self-cleavage kobs at 2500 uM GlcN6P": "0.000499 ± 0.0001"},
      {"variant": "C16A A52U C70G", "self-cleavage kobs at 2500 uM GlcN6P": "0.0002 ± 9.8e-05"},
      {"variant": "C16A C34A U65A", "self-cleavage kobs at 2500 uM GlcN6P": "< 1e-05"},
      {"variant": "A15U A39G A52G", "self-cleavage kobs at 2500 uM GlcN6P": "0.000162 ± 6.5e-05"},
      {"variant": "A12C C16U A39U", "self-cleavage kobs at 2500 uM GlcN6P": "0.00306 ± 0.00084"},
      {"variant": "G13C A15U C61G", "self-cleavage kobs at 2500 uM GlcN6P": "< 1e-05"},
      {"variant": "A12G A39C A42U", "self-cleavage kobs at 2500 uM GlcN6P": "3.14e-05 ± 1.5e-05"},
      {"variant": "C16A G40C A42U", "self-cleavage kobs at 2500 uM GlcN6P": "< 1e-05"},
      {"variant": "C16U U30C G32U G35U U47G", "self-cleavage kobs at 2500 uM GlcN6P": "< 1e-05"},
      {"variant": "A15U G41C", "self-cleavage kobs at 2500 uM GlcN6P": "2.7e-05 ± 1.2e-05"},
      {"variant": "A15U A42U G43C C61G U69A", "self-cleavage kobs at 2500 uM GlcN6P": "< 1e-05"},
      {"variant": "G13A U31G A36G", "self-cleavage kobs at 2500 uM GlcN6P": "< 1e-05"},
      {"variant": "G13U A39U U56A", "self-cleavage kobs at 2500 uM GlcN6P": "0.000101 ± 2e-05"},
      {"variant": "A15U G41U A42G U57C C70A", "self-cleavage kobs at 2500 uM GlcN6P": "7.37e-05 ± 2.1e-05"},
      {"variant": "A14C G29C U30C A52U U65A", "self-cleavage kobs at 2500 uM GlcN6P": "< 1e-05"},
      {"variant": "A12C U31C U54A C67A", "self-cleavage kobs at 2500 uM GlcN6P": "6.33e-05 ± 2e-05"},
      {"variant": "A15G C50G", "self-cleavage kobs at 2500 uM GlcN6P": "8.29e-05 ± 3.5e-05"}
    ]},
    {"variants_of": "B1", "experiment": "self-cleavage kobs at 10000 uM GlcN6P; higher = faster cleavage; RNA array", "conditions": "with glucosamine-6-phosphate", "summary_of_the_method": "as §1", "units": {"self-cleavage kobs at 10000 uM GlcN6P": "s⁻¹"}, "values": [
      {"variant": "G13U U47G C67U", "self-cleavage kobs at 10000 uM GlcN6P": "4.31e-05 ± 2e-05"},
      {"variant": "G13C A15G C58A", "self-cleavage kobs at 10000 uM GlcN6P": "0.000154 ± 2.6e-05"},
      {"variant": "G13U G66A", "self-cleavage kobs at 10000 uM GlcN6P": "0.000729 ± 0.00013"},
      {"variant": "C16A C34A U65A", "self-cleavage kobs at 10000 uM GlcN6P": "< 1e-05"},
      {"variant": "A15U A39G A52G", "self-cleavage kobs at 10000 uM GlcN6P": "0.000571 ± 0.00013"}
    ]}
  ]
}
